# Reference: patent US20210260070A1, “LYSIN CF-301 RESENSITIZES METHICILLIN-RESISTANT STAPHYLOCOCCUS AUREUA (MRSA) TO PENICILLIN DERIVATIVES AND FIRST GENERATION CEPHALOSPORINS” (priority 2018, published 2021)
# B1: PlySs2: bacteriophage lysin derived from Streptococcus suis, amino acid sequence SEQ ID NO: 1 (245 residues) (protein, listed as Streptococcus suis)
# chain: MTTVNEALNNVRAQVGSGVSVGNGECYALASWYERMISPDATVGLGAGVGWVSGAIGDTISAKNIGSSYNWQANGWTVSTSGPFKAGQIVTLGATPGNPYGHVVIVEAVDGDRLTILEQNYGGKRYPVRNYYSAASYRQQVVHYITPPGTVAQSAPNLAGSRSYRETGTMTVTVDALNVRRAPNTSGEIVAVYKRGESFDYDTVIIDVNGYVWVSYIGGSGKRNYVATGATKDGKRFGNAWGTFK
# How the values were obtained:
# Assay type in all cases: cell-based, Staphylococcus aureus
# [1] = system: MRSA strain MW2; test: 21-day in vitro serial passage resistance assay
# Excerpt: Serial passage resistance studies were undertaken to assess the ability of PlySs2 lysin to suppress the emergence of antibiotic resistance when used in combination with oxacillin used to treat S. aureus infections. Methods used to perform serial passage experiments are described in Palmer et al., Genetic basis for daptomycin resistance in enterococci, ANTIMICROBIAL AGENTS AND CHEMOTHERAPY (2011); 55:3345-56 and Berti et al., Altering the Proclivity towards Daptomycin Resistance in Methicillin-Resistant Staphylococcus aureus Using Combinations with Other Antibiotics, ANTIMICROBIAL AGENTS AND CHEMOTHERAPY (2012); 56:5046-53, respectively.
# 21-day in vitro serial passage resistance assays were performed to determine the impact of PlySs2 (alone) on oxacillin and PlySs2 MIC values and the potential for a “seesaw” effect similar to that previously shown, whereby exposures to daptomycin or vancomycin were accompanied by increased susceptibility (and the potential for resensitization) to β-lactam antibiotics [Renzoni et al., Molecular Bases Determining Daptomycin Resistance-Mediated Resensitizatoin to β-Lactams (Seesaw Effect) in Methicillin-Resistant Staphylococcus aureus, ANTIMICROBIAL AGENTS AND CHEMOTHERAPY (2017) 61(1):e01634-16 and Werth et al., Evaluation of Ceftaroline Activity against Heteroresistant Vancomycin-Intermediate Staphylococcus aureus and Vancomycin-Intermediate Methicillin-Resistant S. aureus Strains in an In Vitro Pharmacokinetic/Pharmacodynamic Model: Exploring the ‘Seesaw Effect’, ANTIMICROBIAL AGENTS AND CHEMOTHERAPY (2013); 57(6):2664-68].
# MRSA strain MW2 was serially passaged in triplicate on a daily basis for 21 days using both a 1.1-fold and 2-fold PlySs2 dilution series. As shown in FIGS. 1-3, only modest 2-fold shifts in PlySs2 MIC values were observed. […] This seesaw effect, i.e., a decrease in MRSA's susceptibility to PlySs2 accompanied by a paradoxical increase in susceptibility to oxacillin, indicates PlySs2 lysin's ability to resensitize MRSA to oxacillin. Three MRSA MW2 strain isolates were taken just prior (days 16, 11, and 8 for FIGS. 1-3, respectively) and just after (days 17, 12, and 9 for FIGS. 1-3, respectively) the observed MIC shift for whole genome sequencing.
# [2] = system: MRSA isolates from valvular vegetations; test: MIC values of MRSA isolates recovered from valvular vegetations after PlySs2 treatment (ex vivo)
# Procedure: (§1) An ex vivo analysis was performed on tissue samples recovered after PlySs2 treatment in a standard rabbit model of MRSA infective endocarditis (IE), as disclosed in Xiong et al., Comparative efficacy of telavancin and daptomycin in experimental endocarditis due to multi-clonotype MRSA strains, J. ANTIMIC. CHEMO. (2016); 71(1):2890-94. The standard rabbit IE model was used to confirm the impact of PlySs2 treatment on oxacillin MICs. Four days after treatment with a single-dose of PlySs2 (0.18 mg/kg to 1.4 mg/kg) in the IE model, isolates were recovered from valvular vegetations and plated on TSAB (non-selective condition, Tables 3 and 4) and TSAB supplemented with PlySs2 over a range of concentrations (selective conditions, Tables 5 and 6). MIC values of the MRSA isolates were determined for both PlySs2 and oxacillin. Tables 3 and 4 below show the MICs calculated for PlySs2 and oxacillin, respectively, for valvular vegetations subject to the non-selective conditions.
# [3] = system: S. aureus strain MW2; test: MIC of parental strain
# Procedure: as §1
# [4] = system: MRSA MW2 mutant and control isolates from valvular vegetations; test: MICs of mutant and control isolates from the rabbit IE study
# Excerpt: The PlySs2 and oxacillin MICs of each mutant and control strain are shown below in Tables 7 and 8, wherein + indicates the presence of the mutation and—indicates an absence of the mutation.
# [5] = non-selective, PlySs2 0.18 mg/kg (n = 24)
# [6] = non-selective, PlySs2 0.35 mg/kg (n = 24)
# [7] = non-selective, PlySs2 0.7 mg/kg (n = 24)
# [8] = non-selective, PlySs2 1.4 mg/kg (n = 24)
# [9] = selective conditions, PlySs2 0.18 mg/kg (n = 24)
# [10] = selective conditions, PlySs2 0.35 mg/kg (n = 24)
# [11] = selective conditions, PlySs2 0.7 mg/kg (n = 24)
# [12] = selective conditions, PlySs2 1.4 mg/kg (n = 24)
molecule,measurement,setting,value
"Cc1onc(-c2ccccc2)c1C(=O)N[C@@H]1C(=O)N2[C@@H]1SC(C)(C)[C@@H]2C(=O)O [OXA, oxacillin]",OXA MIC after shift,"[1]; MW2, serial passage in PlySs2, after the shift",16 µg/mL
same,OXA MIC before shift,"[1]; MW2, serial passage in PlySs2, before the shift",64 µg/mL
same,OXA MIC fold change,[1]; MW2 after PlySs2 exposure in serial passage,0.25 fold
same,MIC,"[2]; Staphylococcus aureus, MRSA, read-out: Oxacillin MIC after PlySs2 exposure",< 2 µg/mL
same,Reduction in oxacillin MIC values,"[2]; isolates after PlySs2 exposure in rabbit IE, selective conditions",greater than 16 fold
same,MIC,"[3]; Staphylococcus aureus, MW2",32 µg/mL
same,MIC,"[4]; Staphylococcus aureus, Control #1 isolate",64 µg/mL
same,MIC,"[4]; Staphylococcus aureus, Control #2 isolate",32 µg/mL
same,MIC,"[4]; Staphylococcus aureus, Control #3 isolate",64 µg/mL
same,MIC,"[4]; Staphylococcus aureus, Mutant #1 (hlgCB near, mprF L291I, rlmH K159R, ΔSCCmec)",1 µg/mL
same,MIC,"[4]; Staphylococcus aureus, Mutant #2 (hlgCB near, graR I158S, rlmH K159R, ΔSCCmec)",1 µg/mL
same,Decrease in oxacillin MIC,[4]; two mutants from the valvular vegetations,32 fold
B1,Shift in PlySs2 MIC values,"[1]; MW2 passaged daily for 21 days in 1.1-fold and 2-fold PlySs2 dilution series, triplicate",2 fold
same,PlySs2 MIC of recovered isolates,"[2]; non-selective conditions, remained stable",1 µg/mL
same,Number of isolates with Oxacillin MIC 32 μg/mL,[2]; [5],16
same,Number of isolates with PlySs2 MIC 1 μg/mL,[2]; [5],16
same,Number of isolates with Oxacillin MIC 32 μg/mL,[2]; [6],18
same,Number of isolates with Oxacillin MIC ≤2 μg/mL,[2]; [6],6
same,Number of isolates with PlySs2 MIC 0.5 μg/mL,[2]; [6],3
same,Number of isolates with PlySs2 MIC 1 μg/mL,[2]; [6],21
same,Number of isolates with Oxacillin MIC 16 μg/mL,[2]; [7],1
same,Number of isolates with Oxacillin MIC 32 μg/mL,[2]; [7],23
same,Number of isolates with PlySs2 MIC 0.5 μg/mL,[2]; [7],1
same,Number of isolates with PlySs2 MIC 1 μg/mL,[2]; [7],23
same,Number of isolates with Oxacillin MIC 32 μg/mL,[2]; [8],17
same,Number of isolates with Oxacillin MIC ≤2 μg/mL,[2]; [8],7
same,Number of isolates with PlySs2 MIC 1 μg/mL,"[2]; non-selective, rabbits given PlySs2 1.4 mg/kg (n = 24)",24
same,PlySs2 MIC increase,"[2]; selective conditions, isolates after PlySs2 treatment",≤ 2 fold
same,Number of isolates with Oxacillin MIC 32 μg/mL,[2]; [9],16
same,Number of isolates with PlySs2 MIC 1 μg/mL,[2]; [9],14
same,Number of isolates with PlySs2 MIC 2 μg/mL,[2]; [9],2
same,Number of isolates with Oxacillin MIC 32 μg/mL,[2]; [10],17
same,Number of isolates with Oxacillin MIC <2 μg/mL,[2]; [10],7
same,Number of isolates with PlySs2 MIC 1 μg/mL,[2]; [10],22
same,Number of isolates with PlySs2 MIC 2 μg/mL,[2]; [10],2
same,Number of isolates with Oxacillin MIC 32 μg/mL,[2]; [11],21
same,Number of isolates with PlySs2 MIC 1 μg/mL,[2]; [11],19
same,Number of isolates with PlySs2 MIC 2 μg/mL,[2]; [11],3
same,"Number of isolates with Oxacillin MIC between <2 and 32 μg/mL (4, 8 or 16)","[2]; selective conditions, PlySs2 0.7 mg/kg (n = 24), column not resolvable",3
same,Number of isolates with Oxacillin MIC 32 μg/mL,[2]; [12],21
same,Number of isolates with Oxacillin MIC <2 μg/mL,[2]; [12],3
same,Number of isolates with PlySs2 MIC 1 μg/mL,[2]; [12],20
same,Number of isolates with PlySs2 MIC 2 μg/mL,[2]; [12],4
same,PlySs2 MIC of recovered isolates,"[2]; selective conditions, remained largely stable",1 µg/mL
same,MIC of S. aureus strain MW2,[3],1 µg/mL
same,MIC,[4]; Control #1 isolate,(1 μg/mL)/
same,MIC,[4]; Control #2 isolate,(2 μg/mL)/
same,MIC,[4]; Control #3 isolate,(2 μg/mL)
same,MIC,"[4]; Mutant #1 (hlgCB near, mprF L291I, rlmH K159R, ΔSCCmec)",(2 μg/mL)
same,MIC,"[4]; Mutant #2 (hlgCB near, graR I158S, rlmH K159R, ΔSCCmec)",(1 μg/mL)
